Measurements reported in US20110112279A1.

Target: receptor for STOP-1 on the cell surface (unidentified; HeLa, HT1080, HUVEC and MDA-MB-435 cells) (human)
Test: flow cytometry on MDA-MB-435 cells, flag-tagged STOP-1 alone, anti-flag M2-FITC detection; detection antibody alone gave approximately 7.99

geometric mean value of the signal intensity: 13.2
Substance: flag-tagged full length human STOP-1 (from UniProt Q96CG8 31-243) (ligand)
